Data taken from paper PMC9371709 (Proceedings of the National Academy of Sciences of the …, 2022).
“And” between values parts separate entries of the source, which are not always exact repeats. Identical values can stand only once.

Experiments:
[1] = molecular target: the molecule itself; experiment: SEC-MALS
[2] = molecular target: the molecule itself; experiment: cryo-EM structure

B1: human Twinkle helicase W315L (C-terminal his-tag Δ42, FL residues 43–684) (enzyme, UniProt Q96RR1 43-684, looked up)
chain: ETLQALDMPVLPVTATEIRQYLRGHGIPFQDGHSCLRALSPFAESSQLKGQTGVTTSFSLFIDKTTGHFLCMTSLAEGSWEDFQASVEGRGDGAREGFLLSKAPEFEDSEEVRRIWNRAIPLWELPDQEEVQLADTMFGLTKVTDDTLKRFSVRYLRPARSLVFPWFSPGGSGLRGLKLLEAKCQGDGVSYEETTIPRPSAYHNLFGLPLISRRDAEVVLTSRELDSLALNQSTGLPTLTLPRGTTCLPPALLPYLEQFRRIVFWLGDDLRSLEAAKLFARKLNPKRCFLVRPGDQQPRPLEALNGGFNLSRILRTALPAWHKSIVSFRQLREEVLGELSNVEQAAGLRWSRFPDLNRILKGHRKGELTVFTGPTGSGKTTFISEYALDLCSQGVNTLWGSFEISNVRLARVMLTQFAEGRLEDQLDKYDHWADRFEDLPLYFMTFHGQQSIRTVIDTMQHAVYVYDICHVIIDNLQFMMGHEQLSTDRIAAQDYIIGVFRKFATDNNCHVTLVIHPRKEDDDKELQTASIFGSAKASQEADNVLILQDRKLVTGPGKRYLQVSKNRFDGDVGVFPLEFNKNSLTFSIPPKNKARLKKIKDDTGPVAKKPSSGKKGATTQNSEICSGQAPTPDQPDTSKRSK
stoichiometry N [1]: ~8 | stoichiometry N [2]: 7 and 8
